Patent US20230265151A1, “GIP/GLP1 CO-AGONIST COMPOUNDS” (priority 2020, published 2023)

Tests used:
Assay in all cases: cell-based or functional assay
human GIP receptor = molecular target: T1, human GIP receptor (human, UniProt P48546 22-466)
T1 sequence (looked up): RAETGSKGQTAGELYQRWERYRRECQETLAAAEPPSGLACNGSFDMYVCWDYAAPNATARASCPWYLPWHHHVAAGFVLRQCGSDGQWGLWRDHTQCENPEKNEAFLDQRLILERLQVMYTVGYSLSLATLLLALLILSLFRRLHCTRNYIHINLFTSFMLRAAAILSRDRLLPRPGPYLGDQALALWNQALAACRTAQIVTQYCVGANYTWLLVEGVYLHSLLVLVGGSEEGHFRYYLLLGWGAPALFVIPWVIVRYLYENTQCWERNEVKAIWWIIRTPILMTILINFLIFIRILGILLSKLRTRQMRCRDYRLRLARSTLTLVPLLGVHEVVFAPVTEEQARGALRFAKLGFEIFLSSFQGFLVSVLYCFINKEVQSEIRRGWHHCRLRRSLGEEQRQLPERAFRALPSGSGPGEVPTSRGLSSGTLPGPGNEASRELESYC

human GLP-1 receptor = human GLP-1 receptor (human, UniProt P43220 24-463)
human glucagon receptor = human glucagon receptor (human, UniProt P47871 26-477)

Binder | EC50, cAMP (human GIP receptor) [nM] | Emax, cAMP (human GIP receptor) [%] | EC50, cAMP (human GLP-1 receptor) [nM] | EC50, cAMP (human glucagon receptor) [nM] | Emax, cAMP (human GLP-1 receptor) [%]
YXEGTXTSDXSIXLDXKAQXEFIXXLIEGGPSSGAPPPSK (Aib2, αMeF(2F)6, 4Pal10, αMeL13, Orn16, Aib20, D-Glu24, αMeY25, K17 and K40: K(AEEA2-(γ-Glu)-CO-(CH2)12-CO2H), C-terminal NH2) [Example 19] | 0.0158 | 96.6 | 1.34 | > 9950 | 
YXEGTXTSDXSIXLDXKAQXEFIXXLIEGGPSSGAPPPSK (Aib2, αMeF(2F)6, 4Pal10, αMeL13, Orn16, Aib20, D-Glu24, αMeY25, K17 and K40: K(AEEA2-(γ-Glu)-CO-(CH2)14-CH3), C-terminal NH2) [Example 25] | 0.00243 |  | 0.00426 | > 9950 | 
YXEGTXTSDXSIXLDXIAQXEFIXXLIKGGKSSGAPPPS (Aib2, αMeF(2F)6, 4Pal10, αMeL13, Orn16, Aib20, D-Glu24, αMeY25, K28 and K31: K(AEEA2-(γ-Glu)-CO-(CH2)12-CO2H), C-terminal NH2) [Example 20] | 0.00985 | 98.8 | 0.552 | > 9950 | 
YXEGTXTSDXSIXLDXKAQXEFIXXLIEGGKSSGAPPPS (Aib2, αMeF(2F)6, 4Pal10, αMeL13, Orn16, Aib20, D-Glu24, αMeY25, K17 and K31: K(AEEA2-(εK)-(γ-Glu)-CO-(CH2)12-CO2H), C-terminal NH2) [Example 34] | 0.0148 |  | 1 | > 9950 | 
YXEGTXTSDKSIXLDXKAQXEFIXXLIEGGPSSGAPPPS (Aib2, αMeF(2F)6, αMeL13, Orn16, Aib20, D-Glu24, αMeY25, K10 and K17: K(AEEA2-(γ-Glu)-CO-(CH2)12-CO2H), C-terminal NH2) [Example 27] | 0.116 | 88.8 | 2.77 | > 9950 | 
YXEGTXTSDXSIXLDXKAQXEFIXKLIEGGPSSGAPPPS (Aib2, αMeF(2F)6, 4Pal10, αMeL13, Orn16, Aib20, D-Glu24, K17 and K25: K(AEEA2-(γ-Glu)-CO-(CH2)14-CH3), C-terminal NH2) [Example 32] | 0.002 |  | 0.0063 | > 9950 | 119
YXEGTXTSDXSIXLDXKAQXEFIXXLIEGGKSSGAPPPS (Aib2, αMeF(2F)6, 4Pal10, αMeL13, Orn16, Aib20, D-Glu24, αMeY25, K17 and K31: K(AEEA2-(γ-Glu)-CO-(CH2)10-CO2H), C-terminal NH2) [Example 6] | 0.0477 |  | 2.3 | > 9950 | 
YXEGTXTSDXSIXLDXKAQXEFIXXLIEGGKSSGAPPPS (Aib2, αMeF(2F)6, 4Pal10, αMeL13, Orn16, Aib20, D-Glu24, αMeY25, K17 and K31: K(AEEA2-(γ-Glu)-(10-(4-carboxyphenoxy)decanoyl)), C-terminal NH2) [Example 2] | 0.0154 |  | 1.14 | > 9950 | 
YXEGTXTSDXSIXLDXKAQXEFIXXLIEGGKSSGAPPPS (Aib2, αMeF(2F)6, 4Pal10, αMeL13, Orn16, Aib20, D-Glu24, αMeY25, K17 and K31: K((εK)-(γ-Glu)-CO-(CH2)12-CO2H), C-terminal NH2) [Example 38] | 0.0155 |  | 0.225 | > 9950 | 
YXEGTXTSDXGIXLDXKAQXEFIXXLIEGGKSSGAPPPS (Aib2, αMeF(2F)6, 4Pal10, αMeL13, Orn16, Aib20, D-Glu24, αMeY25, K17 and K31: K(AEEA2-(γ-Glu)-CO-(CH2)12-CO2H), C-terminal NH2) [Example 100] |  |  | 11.4 | > 9950 | 111
YXEGTXTSDXSIXLDXKAQXEFIXXLIEGGKSSGAPPPS (Aib2, αMeF(2F)6, 4Pal10, αMeL13, Orn16, Aib20, D-Glu24, αMeY25, K17 and K31: K((εK)-AEEA2-(γ-Glu)-CO-(CH2)12-CO2H), C-terminal NH2) [Example 37] | 0.0211 |  | 0.909 | > 9950 | 
YXEGTXTSDXSKXLDXKAQXEFIXXLIEGGPSSGAPPPS (Aib2, αMeF(2F)6, 4Pal10, αMeL13, Orn16, Aib20, D-Glu24, αMeY25, K12 and K17: K(AEEA2-(γ-Glu)-CO-(CH2)12-CO2H), C-terminal NH2) [Example 28] | 0.0554 | 95.4 | 2.65 | > 9950 | 
YXEGTXTSDXSIXLDXKAQXEFIXXLIEGGKSSGAPPPS (Aib2, αMeF(2F)6, 4Pal10, αMeL13, Orn16, Aib20, D-Glu24, αMeY25, K17 and K31: K(AEEA2-(εK)-CO-(CH2)12-CO2H), C-terminal NH2) [Example 33] | 0.00957 |  | 0.37 | > 9950 | 
YXEGTXTSDXSIXLDXKAQXEFIXXLIEGGKSSGAPPPS (Aib2, αMeF(2F)6, 4Pal10, αMeL13, Orn16, Aib20, D-Glu24, αMeY25, K17 and K31: K((εK)-(γ-Glu)-(γ-Glu)-CO-(CH2)12-CO2H), C-terminal NH2) [Example 39] | 0.0238 |  | 0.358 | > 9950 | 
YXEGTXTSDXSIXLDXKAQXEFIXXLIEGKPSSGAPPPS (Aib2, αMeF(2F)6, 4Pal10, αMeL13, Orn16, Aib20, D-Glu24, αMeY25, K17 and K30: K(AEEA2-(γ-Glu)-CO-(CH2)14-CH3), C-terminal NH2) [Example 24] | 0.00266 |  | 0.0063 | > 9950 | 
YXEGTXTSDKSIXLDXKAQXEFIXXLIEGGPSSGAPPPS (Aib2, αMeF(2F)6, αMeL13, Orn16, Aib20, D-Glu24, αMeY25, K10 and K17: K(AEEA2-(γ-Glu)-CO-(CH2)14-CH3), C-terminal NH2) [Example 29] | 0.00252 |  | 0.00468 | > 9950 | 100
YXEGTXTSDXSIXLDXKGQXEFIXXLIEGGKSSGAPPPS (Aib2, αMeF(2F)6, 4Pal10, αMeL13, Orn16, Aib20, D-Glu24, αMeY25, K17 and K31: K(AEEA2-(γ-Glu)-CO-(CH2)12-CO2H), C-terminal NH2) [Example 102] |  |  | 19.1 | > 9950 | 
YXEGTXTSDXSIXLDXKAQXEFIXXLIEGGKSSGAPPPS (Aib2, αMeF(2F)6, 4Pal10, αMeL13, Orn16, Aib20, D-Glu24, αMeY25, K17 and K31: K(AEEA2-(γ-Glu)-CO-(CH2)12-CO2H), C-terminal NH2) [Example 1] | 0.0145 | 90.2 | 0.925 | > 9950 | 
YXEGTXTSDXSIXLDXKAQXEFIXXLIEGGKSSGAPPPS (Aib2, αMeF(2F)6, 4Pal10, αMeL13, Orn16, Aib20, D-Glu24, αMeY25, K17 and K31: K(AEEA3-(γ-Glu)-CO-(CH2)12-CO2H), C-terminal NH2) [Example 30] | 0.0175 |  | 2.27 | > 9950 | 
YXEGTXTSDXSIXLDXKAQXEFIXXLIKGGPSSGAPPPS (Aib2, αMeF(2F)6, 4Pal10, αMeL13, Orn16, Aib20, D-Glu24, αMeY25, K17 and K28: K(AEEA2-(γ-Glu)-CO-(CH2)14-CH3), C-terminal NH2) [Example 23] | 0.00299 |  | 0.00722 | > 9950 | 
YXEGTXTSDXSIXLDXIAQXEFIXXLIKGGKSSGAPPPS (Aib2, αMeF(2F)6, 4Pal10, αMeL13, Orn16, Aib20, D-Glu24, αMeY25, K28 and K31: K(AEEA2-(γ-Glu)-CO-(CH2)14-CH3), C-terminal NH2) [Example 26] | 0.0218 |  | 0.0711 | > 9950 | 
YXEGTXTSDXSIXLDXKAQXKFIXXLIEGGPSSGAPPPS (Aib2, αMeF(2F)6, 4Pal10, αMeL13, Orn16, Aib20, D-Glu24, αMeY25, K17 and K21: K(AEEA2-(γ-Glu)-CO-(CH2)14-CH3), C-terminal NH2) [Example 21] | 0.00347 |  | 0.00655 | > 9950 | 
YXEGTXTSDXSIXLDXKAQXEFIXXLIEGGKSSGAPPPS (Aib2, αMeF(2F)6, 4Pal10, αMeL13, Orn16, Aib20, D-Glu24, αMeY25, K17 and K31: K(AEEA-(εK)-(γ-Glu)-CO-(CH2)12-CO2H), C-terminal NH2) [Example 35] | 0.0162 |  | 0.612 | > 9950 | 
YXEGTXTSDXSIXLDXKAQXEFIXXLIEGGKSSGAPPPS (Aib2, αMeF(2F)6, 4Pal10, αMeL13, Orn16, Aib20, D-Glu24, αMeY25, K17 and K31: K((εK)-AEEA-(γ-Glu)-CO-(CH2)12-CO2H), C-terminal NH2) [Example 36] | 0.0185 |  | 0.536 | > 9950 | 
YXEGTXTSDXSIXLDXKAQXEFIXXLIEGGKSSGAPPPS (Aib2, αMeF(2F)6, Bzt10, αMeL13, Orn16, Aib20, D-Glu24, αMeY25, K17 and K31: K(AEEA2-(γ-Glu)-CO-(CH2)12-CO2H), C-terminal NH2) [Example 142] | 0.0317 |  |  | > 9950 | 
YXEGTXTSDXSIXLDXKAQXEFIKXLIEGGPSSGAPPPS (Aib2, αMeF(2F)6, 4Pal10, αMeL13, Orn16, Aib20, αMeY25, K17 and K24: K(AEEA2-(γ-Glu)-CO-(CH2)14-CH3), C-terminal NH2) [Example 22] | 0.00656 |  | 0.0153 | > 9950 | 
